Reference: the RNAGym collection of RNA variant scans (doi:10.1073/pnas.2313332121)
Fewer inactive variants are shown than the library holds.

B1: TPR 5TU (parent)
chain: GGAUCUUCUCGAUCUAACAAAAAAGACAAAUCUGCCACAAAGCUUGAGAGCAUCUUCGGAUGCAGAGGCGGCAGCCUUCGGUGGCGCGAUAGCGCCAACGUUCUCAACUAUGACACGCAAAACGCGUGCUCCGUUGAAUGGAGUUUAUCAUG

Variants of: B1
Assay: polymerase ribozyme fitness, log enrichment relative to wild type (log ratio); higher = more active; in vitro selection for triplet polymerase activity
Summary of the method: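 Fitness measures genotype enrichment against wild-type enrichment on a logarithmic scale, with inverse-variance-weighted averaging of replicates. The logarithm is base 2, and genotypes were kept only with ≥10 input reads and ≥1 read per output in Illumina sequencing. The sequenced libraries came from one triplicate in vitro selection round, including frozen incubation at −7 °C, of PCR-built, transcribed mutant libraries of each subunit of a heterodimeric triplet polymerase ribozyme.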

Row | Variant | polymerase ribozyme fitness (log ratio)
1 | G83A G141U | -0.659
2 | C85A | -1.28
3 | G84A A89G G100C A115G C125U | ≤ -4.2
4 | U82G G128U | -3.35
5 | G83C G92A | ≤ -4.2
6 | G84A A110U | -3.36
7 | G83U C93U | -2.69
8 | G83C C116U A120C U135G | -3.87
9 | G83U A142C U145C | -3.76
10 | G84C G92C A106U C149U | ≤ -4.2
11 | C85A C96U G128A | -4.19
12 | G83U A98C A115G | -1.62
13 | G84C C95A A142C | -1.65
14 | G83C U146A | -0.565
15 | G84A A89G | -1.6
16 | U82G G92A | -2.96
17 | U82G G86U C123U | -1.47
18 | G83C C118G | -0.968
19 | G83C C118U | -1.34
20 | C85A A138G | -3.24
21 | G84U A106C | -2.1

Row | Variant | polymerase ribozyme fitness (log ratio)
22 | G84U A106U | -2.69
23 | G84A U104C | -0.421
24 | C85A C125A A137G | -2.28
25 | C85A C96U A137U U144A | ≤ -4.2
26 | C85A C96A | -2.22
27 | G84U A138U | ≤ -4.2
28 | G84A C95G G141C | -0.311
29 | G83A C114U | -2.41
30 | G84U A115U | -3.4
31 | G83A G126C | 0.173
32 | G84A A142C | -1.65
33 | G84A A142G | -1.82
34 | C85A C95A C125U | -1.39
35 | G84A A98G C105A | -1.05
36 | G83C U90C A107C C116A U127C A150C | ≤ -4.2
37 | G84C G117C | -1.73
38 | C85A A120U | -1.7
39 | C85A A142C | -3.23
40 | G84A G100C | ≤ -4.2
41 | C85A C129G | -2.95
42 | G84U U101G G126C | -1.67

Row | Variant | polymerase ribozyme fitness (log ratio)
43 | G84A G117U U139G U145C | -0.527
44 | G83A C99U G143A A147U | -3.6
45 | G83A A97G | -0.594
46 | G83A A97U | 0.538
47 | U82G U104C C116U C125U A138C | ≤ -4.2
48 | G83C C125U U146G | -3.89
49 | G83U G94C C116U | -2.08
50 | G84U A121C | -1.74
51 | G84U G92A | ≤ -4.2
52 | G84A C85A G86A G92U U101C | ≤ -4.2
53 | C85A C95G A115G | -3.81
54 | C85A C114U G143A | ≤ -4.2
55 | G83U G128U | -3.22
56 | G84A U102A | -1.01
57 | G84U G88A A120C | ≤ -4.2
58 | G84A A115C | -0.594
59 | G84A A115U | -2.62
60 | G84U G141A | -1.4
61 | G83C C95G U148G | ≤ -4.2
62 | G83U C87U A89C C123A C125U | -1.33
63 | U82G G84A U145C | -0.385

Row | Variant | polymerase ribozyme fitness (log ratio)
64 | G84U G92C A121U | -2.94
65 | G83U C132U | -1.33
66 | G83A C87A | ≤ -4.2
67 | G84U C116U G141C | -4.04
68 | G83U G126A | -0.669
69 | G84U G94A C96A | -3.87
70 | C85A A147G | -0.743
71 | G83A C85U | -1.94
72 | G83A C85U A115U C116U | -2.68
73 | U82G C95A | -1.03
74 | G83U C95G G126U | -1.85
75 | G83A A97C U104A G136A | -1.39
76 | G83A A97U A98U A138U | -4.07
77 | G84A A150G | -0.63
78 | G84A A150C | -3
79 | G83A G117C U145G | -1.38
80 | G83A A91C A142G | ≤ -4.2
81 | G83A C118A C129A | -3.64
82 | G83C A115U A120U | -1.99
83 | G84U G94U | -2.37
84 | G83C C105G G126A | -2.8
